Assay results published in PMC4141209.

Substrate: O=C(O)[C@H]1NCC[C@@H]1O
Assay: purified protein
Settings: pH 8.0 Tris-HCl, 50 °C, 0.15 mM NADH, TlLhpI as coupling enzyme

B1: TlLhpH (Thermococcus litoralis DSM 5473) (protein)
chain: MFKKLENLEKWEPPKDWMVIKTLDTHTAGEPLRIILSGFPEIPGKTILEKRRYLMENLDHLRKALMWEPRGHADMYGAIITEPVSEEADFGVIFMHNEGYSTMCGHATIALGKVAVECGLVEAKEPITEIKMDSPAGLIKIYVKVRDGKVEKVYFHNVPSFVLFKDETINVPGIGEVKYDLAYGGAFYAFVNAEEIGLKCTPEYYRQLIDVGMKIKRAIMSEKEIRHPFEEDLSFLYGTIFIGEPEDENSHSRHVCIFADGEVDRSPTGTGVSARLAILYEKGEIDIGEEITIESIIGTKFTGKVVEETRYGLYRAIIPEVGGNAYIVAKNTFLIDPQDPLKYGFFLR
- Km: 288 µM
- kcat: 28.5 s⁻¹
